# The supplement of paper PMC10126150
# ± gives the standard deviation of the averaged measurements.
# Test system: ATP
# Experiment: switch fluorescence ratio, 500 uM ATP over buffer (Cy3 cluster intensity, sum of 5 cycles each) (fold (ratio)); higher = stronger signal-on switching upon ATP binding; sequences stand for … in TCGTCGGCAGCGTCAGATGTGTATAAGAGACAGTTTTTTTTTTTTTTTTTTTTTTTTT…TC
# Conditions: aptamer strand: ATP DNA aptamer (quencher-CACCTGGGGGAGTATTGCGGAGGAAGG + anchor), 100 nM annealed; ATP concentration: 500 uM
# Method in brief: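 Exposure to 500 uM ATP lasted 15 min at 22 °C before imaging, and a selection-buffer image was taken beforehand, for Cy3-labelled switching-strand clusters on a modified Illumina MiSeq flow-cell annealed to 100 nM quencher-labelled ATP aptamer. Five buffer/ATP cycles were run with NaOH stripping and re-annealing between them. The fluorescence ratio per cluster is summed target-cycle over summed buffer-cycle Cy3 intensity, averaged per switch-domain sequence. Clusters outside 100-1000 RFU were excluded.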
row,Sequence,switch fluorescence ratio
1,TTTACATTTT,0.998 ± 0.044
2,AGCGAGGTCG,1 ± 0.031
3,CCTGGATTTA,1.01 ± 0.011
4,GGGTGCGGCG,0.968 ± 0.035
5,CTTATATCTT,0.993 ± 0.025
6,CTGGGTTGTA,1 ± 0.012
7,GGGGGCATGG,1 ± 0.02
8,CGGTGCATGG,0.991 ± 0.1
9,GGGGGGGTCC,0.99 ± 0.025
10,TCAATCATTT,0.997 ± 0.053
11,TAGGCATTGG,0.995 ± 0.014
12,CCTACGTTT,1.06 ± 0.063
13,GTGCAATGTA,1.1 ± 0.015
14,GGTTAATGGC,1.05 ± 0.039
15,GGGGTTGGGC,1 ± 0.028
16,AATTGGAGGG,1 ± 0.029
17,GAGTTGTGGG,0.993 ± 0.014
18,TTTGGGCACG,1.05 ± 0.017
19,AGCGCATTGT,1.02 ± 0.031
20,CGTAGAATGT,0.992 ± 0.022
21,ATGATCAATT,1.02 ± 0.049
22,TCTATGATAG,0.971 ± 0.013
23,AGAACCTCTT,1.06 ± 0.033
24,AGATCGTTTT,0.999 ± 0.012
25,GAAAAAGCCC,1.04 ± 0.031

row,Sequence,switch fluorescence ratio
1,ATCGGAATGT,1.012 ± 0.0063
2,GAGTTACGGG,1.01 ± 0.072
3,TAAGCGGGTA,1.02 ± 0.016
4,TTTGGATAGA,0.998 ± 0.025
5,TAGCTCGGCT,0.95364 ± 0.00022
6,TTTAGCAGGT,1.05 ± 0.014
7,GATTTTGTAC,1.012 ± 0.0043
8,TTTATCCAAT,0.984 ± 0.037
9,TTTGTGGATT,1.06 ± 0.069
10,AGTCGGTAGG,1.02 ± 0.012
11,GACTGGGGTA,0.988 ± 0.011
12,TATAGCATTA,1.04 ± 0.014
13,ACTAGGGTCT,1 ± 0.081
14,CAAATGGTTC,0.9582 ± 0.0043
15,CAAGTGGCGG,0.969 ± 0.016
16,TCGAGATATG,0.978 ± 0.09
17,TACCGACATA,1.189 ± 0.0084
18,AGTCTGGGGA,0.99 ± 0.015
19,GGATTTATTT,1.06 ± 0.026
20,CCGCTCAGTT,1.355 ± 0.0058
21,CCAATGAGTC,0.971 ± 0.013
22,TTGTTACTGG,1.01 ± 0.03
23,ATCGTCGGTT,0.973 ± 0.013
24,TTGCTTGGTG,1.03 ± 0.017
25,GTAAGGGGAT,0.988 ± 0.016

row,Sequence,switch fluorescence ratio
1,TTTGCGGGTG,1.6 ± 0.91
2,GAGACCTATT,0.993 ± 0.035
3,AGGTGGGGGA,0.995 ± 0.031
4,CCGGAAAAAG,1.02 ± 0.074
5,AGGCGTTGAG,0.976 ± 0.018
6,TTAAATTGCG,0.994 ± 0.027
7,CGTGGCAAAG,1.02 ± 0.015
8,CAAACAGGCA,1.03 ± 0.041
9,GGGGCAGCAG,1.02 ± 0.031
10,TACCGTTGGG,1.01 ± 0.038
11,AAATTGGGTT,0.9768 ± 0.0091
12,CCAAGTGCTG,0.994 ± 0.018
13,ATGGGTCCGG,1.02 ± 0.037
14,CGAATCCATT,0.9869 ± 0.0033
15,TGAGTTGTTT,0.985 ± 0.013
16,TGAAAGGCGT,0.9862 ± 0.0072
17,AAAAAGTTGT,1 ± 0.028
18,TGGTAATTAT,0.974 ± 0.023
19,AAAAGACGTT,1 ± 0.029
20,TCGGAATCAA,1.127 ± 0.0071
21,GCTATCGAGT,1.01 ± 0.018
22,CGATGGTCTG,0.9872 ± 0.0018
23,TTGGGCAGGA,1.06 ± 0.047
24,GGTTGAGGG,0.997 ± 0.001
25,GGATGTGAAA,0.9851 ± 0.0046

row,Sequence,switch fluorescence ratio
1,GGCGAAGTTC,0.99 ± 0.021
2,CCAAGTTTTT,0.98 ± 0.031
3,GGAAGGGGTT,1.03 ± 0.089
4,TTTTATATGC,1.19 ± 0.27
5,TTTTATCTAG,1.01 ± 0.012
6,TTGCATTAAG,0.9963 ± 0.0082
7,ATATTAGGGA,1 ± 0.0079
8,GGTTTTGTAG,0.999 ± 0.012
9,ATCTCTTTTA,0.954 ± 0.0099
10,ATGTACGCTT,1.052 ± 0.0038
11,CAAAGCTGGG,1.05 ± 0.05
12,ATAGTCCTGG,0.963 ± 0.019
13,GGGACTCGTG,1.04 ± 0.053
14,CGCCCGTAGG,1.05 ± 0.011
15,AAGTTTGTAG,1 ± 0.03
16,GAGGTCCACT,1.01 ± 0.044
17,GGGTGGCCTA,1 ± 0.015
18,GAGTTCAGTA,0.975 ± 0.034
19,GAGTTTAAAT,1.02 ± 0.022
20,CTCGGAGAGG,0.987 ± 0.033
21,CTTGGGTAAG,0.988 ± 0.033
22,AGTCTAGATA,1.0302 ± 0.00084
23,TGAGATTTGT,1.06 ± 0.12
24,CGTGACAGAG,0.992 ± 0.02
25,GTTTTAGGGG,1.01 ± 0.052

row,Sequence,switch fluorescence ratio
1,TTGAGGTGCG,1.01 ± 0.026
2,TGCTGGGATT,1.02 ± 0.044
3,GTTTTTTATA,0.995 ± 0.011
4,GTATGTTGCG,0.96532 ± 0.00026
5,GGGAGTGGCA,1.08 ± 0.15
6,AACTGGCTGC,0.993 ± 0.061
7,ATAGGGTGGG,1 ± 0.022
8,GTGGCAACGC,0.98 ± 0.021
9,TTGGGGGTT,1.03 ± 0.017
10,GCTATCTTAT,0.9798 ± 0.008
11,AGCGGGTTG,1.02 ± 0.017
12,AATGATTGAA,0.968 ± 0.023
13,TCTCGCCAAG,1.06 ± 0.019
14,ACGGGTCGGA,1 ± 0.027
15,TAAAGTATAA,0.972 ± 0.026
16,TTTTAAATGT,1.04 ± 0.029
17,TTTTAGAGCC,1.04 ± 0.043
18,AGGCGGGACA,1.025 ± 0.0082
19,TGTTTGTAGA,1.03 ± 0.018
20,CAAGAAGTGG,0.993 ± 0.041
21,CGAGGACGGG,1 ± 0.029
22,AGAAATTTTT,0.998 ± 0.016
23,GGTTCTGAGC,0.986 ± 0.02
24,AGACCGCTTA,1.15 ± 0.036
25,AGTTGAGGGG,0.985 ± 0.034

row,Sequence,switch fluorescence ratio
1,TATGTCGGCG,0.991 ± 0.055
2,AGCGGAGGGG,1.04 ± 0.033
3,GGGTGTTCTG,1.01 ± 0.018
4,TTCCGGAGGG,1.02 ± 0.063
5,GCGGGTGGGA,1.02 ± 0.034
6,ACGACTTTGT,1.02 ± 0.032
7,CGTGGGTCCA,1.024 ± 0.01
8,TCGGGGCTTT,0.982 ± 0.022
9,TGACGACCGC,3.33 ± 0.48
10,TTTAAAGCCC,1.01 ± 0.043
11,CTTAAATTGT,1.01 ± 0.011
12,AAGAAGTGTT,1.003 ± 0.0039
13,ATACGATGTA,0.986 ± 0.014
14,CAGTAGCTGT,1.204 ± 0.0022
15,GAGGGGGAGC,1.03 ± 0.089
16,TCTTAGCATA,1.18 ± 0.13
17,TACAAGGACG,1.03 ± 0.098
18,CAGGGTGAGA,1.04 ± 0.016
19,TTTAGGTTGG,0.994 ± 0.031
20,AACCCGGGAG,1.17 ± 0.2
21,TAAAAAGGGC,0.992 ± 0.057
22,AGGTAATAGT,1.03 ± 0.028
23,TCTTATTCAA,0.98 ± 0.012
24,GGGTATGGGA,0.99 ± 0.017
25,GAAGCCGTTT,1.01 ± 0.039

row,Sequence,switch fluorescence ratio
1,GGGTTGGGG,0.995 ± 0.048
2,ACAATCTCTT,1.02 ± 0.025
3,GTTTACGCAC,1.75 ± 0.03
4,GCGGACAGTT,0.9675 ± 0.0086
5,GGGTTCAGTG,0.982 ± 0.026
6,AGAGGGAGTA,1 ± 0.022
7,GCCAGGAAAA,0.957 ± 0.053
8,GACAATGGTG,1.021 ± 0.0049
9,GTATTTCGGC,0.994 ± 0.027
10,TTTCCCTCGT,1.16 ± 0.17
11,GTAGGAGCCG,0.9987 ± 0.0097
12,GCAATTTTTT,1.03 ± 0.032
13,TAAATACGGG,1.03 ± 0.016
14,AGACGGAATT,1.049 ± 0.0063
15,AATAACACGT,1 ± 0.026
16,TTCGTATTGT,0.975 ± 0.018
17,CTCGGGGGGC,0.992 ± 0.063
18,CTATTGGGAT,0.98078 ± 0.00046
19,TTTATTCCTT,1.02 ± 0.018
20,GGGTTAATTC,1.03 ± 0.088
21,GGATTTTGGA,1 ± 0.018
22,GGGGGTTACG,0.998 ± 0.03
23,AACATTCCTT,1.23 ± 0.08
24,TTGGGTGGTA,0.988 ± 0.028
25,ATGTTTGGGT,1.01 ± 0.019

row,Sequence,switch fluorescence ratio
1,GCAGCTGTTT,1.02 ± 0.044
2,GCACTGGTGG,1.02 ± 0.032
3,TTTAAAGGAT,1 ± 0.024
4,TTTTTCTCCC,1.03 ± 0.049
5,TGGTGCAATC,2.36 ± 0.86
6,AGTCGCCTTT,1.02 ± 0.056
7,TACAAGTCAA,1.02 ± 0.017
8,ACCTGGATAC,1.86 ± 0.019
9,AAAGATTTTG,0.982 ± 0.031
10,CCGTGGCTGT,1.31 ± 0.068
11,GGGTGGGAGT,1.026 ± 0.0097
12,GGACACGCAG,1.02 ± 0.047
13,TATTTTATGT,1.021 ± 0.0042
14,TTCTAGTCGT,0.971 ± 0.019
15,GGGGGGTAA,1.01 ± 0.019
16,TTGCTGAGCT,0.9984 ± 0.0076
17,CGGCATCGAA,0.985 ± 0.036
18,GCTCTTAGTT,0.992 ± 0.018
19,TGAGGGGTAG,0.988 ± 0.05
20,AGCTCGCGTC,0.981 ± 0.021
21,TTCTTGAGTA,0.984 ± 0.019
22,GCGCCGTGGC,0.99035 ± 0.00081
23,TTGTTTACCG,0.9557 ± 0.0045
24,GATGTGGTGG,0.99 ± 0.034
25,AATCTGGGGG,1.01 ± 0.018
